Usually Km stands for the substrate concentration at which the rate is half of its maximum.

We go through two proteins from publication PMC3972249.

Substrate in the series: Nc1ncnc2c1ncn2[C@@H]1O[C@H](COP(=O)(O)OP(=O)(O)OP(=O)(O)O)[C@@H](O)[C@H]1O
The experiment in a line: KM from ATP titration in ATP:PPi exchange assay. It counts as biochemical, Homo sapiens.

Residue numbers refer to the chain shown, from its start. Names and notes keep the numbering of the source.

B1: NEDD8-activating enzyme (NAE), catalytic subunit UBA3 I310N (Homo sapiens; I310N) (protein)
chain: ADGEEPEKKRRRIEELLAEKMAVDGGCGDTGDWEGRWNHVKKFLERSGPFTHPDFEPSTESLQFLLDTCKVLVIGAGGLGCELLKNLALSGFRQIHVIDMDTIDVSNLNRQFLFRPKDIGRPKAEVAAEFLNDRVPNCNVVPHFNKIQDFNDTFYRQFHIIVCGLDSIIARRWINGMLISLLNYEDGVLDPSSIVPLIDGGTEGFKGNARVILPGMTACIECTLELYPPQVNFPMCTIASMPRLPEHCIEYVRMLQWPKEQPFGEGVPLDGDDPEHIQWIFQKSLERASQYNIRGVTYRLTQGVVKRINPAVASTNAVIAAVCATEVFKIATSAYIPLNNYLVFNDVDGLYTYTFEAERKENCPACSQLPQNIQFSPSAKLQEVLDYLTNSASLQMKSPAITATLEGKNRTLYLQSVTSIEERTRPNLSKTLKELGLVDGQELAVADVTTPQTVLFKLHFTS
notes: recombinant human UBA3 (isoform 1) in NAE complex; with NAEα (APPBP1); NEDD8
In the case of B1, the Km was 20 µM.

B2: NEDD8-activating enzyme (NAE), catalytic subunit UBA3 (NAEβ) (Homo sapiens) (protein)
chain: B1 chain with N309I
notes: as for B1
In the case of B2, the Km is 80 µM.
